Patent US20070092518A1 (published 2007)
Numbering of substitutions follows the chain as printed.

Biological target: T1, human tumor necrosis factor-α (rHuTNF-alpha, Biosource) (human, UniProt P01375 77-233)
T1 construct: Bought recombinant protein coated on ELISA plates; The TNFα of the Biacore assay is not described further; also called TNFα; human TNFα
Test: solid-phase ELISA, Fab lysate on coated rHuTNF-alpha
Outline: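 E. coli lysates expressing His-tagged Fab (pTrcHis2A) were incubated 2 h at RT on wells coated with 1 μg/ml rHuTNF-α and blocked with BSA. Bound Fab was detected with biotinylated anti-human kappa plus penta-His conjugates, then streptavidin-POD and TMB. Absorbance was read at 450 nm.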

T1 sequence (P01375 77-233 limits assumed): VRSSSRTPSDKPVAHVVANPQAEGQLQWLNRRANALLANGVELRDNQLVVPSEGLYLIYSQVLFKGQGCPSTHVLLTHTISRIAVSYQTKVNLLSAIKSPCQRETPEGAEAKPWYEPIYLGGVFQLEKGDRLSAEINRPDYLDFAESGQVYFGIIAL

B1: SEQ ID NO 101 (Fab, V domains shown)
VH: EVQLVESGGGLVQPGGSLRLSCRASGFTFSNHYMNWVRQAPGKGLEWIGEIRSKSSNSATSYAESVKGRFIISRDDNGNSLYLEMNSLKTEDTAEYYCAQNYYGSTPDYWGQGTLVTVS
VL: EIVLTQSPDFQSVTPKEKVTITCRASQFVGSSIHWYQQKPDQSPKLLIKYASESMSGVPSRFSGSGSGTDFTFTISSLEAEDAATYYCQQSHSWPFTFGPGTKVDIK
notes: Fab, E. coli lysate
  binding result: binds

B2: SEQ ID NO 159 (Fab, V domains shown)
VH: B1 VH with R23A, T28I, Y33W, S56I, N57Y, D76G, N79T, Y82T, Q100R, P107Y
VL: B1 VL
notes: Fab, E. coli lysate
  binding result: binds

B3: SEQ ID NO 105 (Fab, V domains shown)
VH: B1 VH with V5T, R23A, T28I, S58G, Y82T
VL: B1 VL
notes: Fab, E. coli lysate
  binding result: binds

B4: SEQ ID NO 127 (Fab, V domains shown)
VH: B1 VH with V5T, R23A, G26Q, T28I, Y33W, N57Y, S58G, Y82T, Q100R
VL: B1 VL
notes: Fab, E. coli lysate
  binding result: binds

B5: SEQ ID NO 161 (Fab, V domains shown)
VH: B1 VH with V5T, T28I, Y33W, S56I, N57Y, S61H, S80D
VL: B1 VL
notes: Fab, E. coli lysate
  binding result: binds

B6: SEQ ID NO 132 (Fab, V domains shown)
VH: B1 VH with R23A, G26Q, F27S, T28I, S56I, N57Y, S58G, G78K, Y82T, Q100R
VL: B1 VL
notes: Fab, E. coli lysate
  binding result: binds

B7: SEQ ID NO 141 (Fab, V domains shown)
VH: B1 VH with R23A, F27S, Y33W, S56I, N57Y, S58G, D76G, G78K, Q100R, P107Y
VL: B1 VL
notes: Fab, E. coli lysate
  binding result: binds

B8: SEQ ID NO 156 (Fab, V domains shown)
VH: EVQLTESGGGLVQPGGSLRLSCAASQSTFSNHWMNWVRQAPGKGLEWIGEIRSKSINSATSYAESVKGRFIISRDDNKNDLTLEMNSLKTEDTAEYYCARNYYGSTYDYWGQGTLVTVS
VL: B1 VL
notes: Fab, E. coli lysate
  binding result: binds

B9: SEQ ID NO 138 (Fab, V domains shown)
VH: B1 VH with V5T, T28I, D76G, G78K, S80D, Q100R
VL: B1 VL
notes: Fab, E. coli lysate
  binding result: binds

B10: SEQ ID NO 162 (Fab, V domains shown)
VH: B8 VH with T5V, S27F, T28I, W33Y, I56S, N57Y, S61H, D76G
VL: B1 VL
notes: Fab, E. coli lysate
  binding result: binds

B11: SEQ ID NO 109 (Fab, V domains shown)
VH: B8 VH with T5V, A23R, Q26G, T28I, I56S, S61H
VL: B1 VL
notes: Fab, E. coli lysate
  binding result: binds

B12: SEQ ID NO 124 (Fab, V domains shown)
VH: B8 VH with T5V, W33Y, I56S, S61H, D76G, T82Y, Y107P
VL: B1 VL
notes: Fab, E. coli lysate
  binding result: binds

B13: SEQ ID NO 151 (Fab, V domains shown)
VH: B1 VH with R23A, G26Q, T28I, S56I, N57Y, S58G, S61H, D76G, Y82T, Q100R
VL: B1 VL
notes: Fab, E. coli lysate
  binding result: binds

B14: SEQ ID NO 140 (Fab, V domains shown)
VH: B1 VH with V5T, R23A, F27S, S61H, N79T, Q100R, P107Y
VL: B1 VL
notes: Fab, E. coli lysate
  binding result: binds

B15: SEQ ID NO 149 (Fab, V domains shown)
VH: B1 VH with V5T, G26Q, T28I, N57Y, S61H, P107Y
VL: B1 VL
notes: Fab, E. coli lysate
  binding result: binds

B16: SEQ ID NO 157 (Fab, V domains shown)
VH: B1 VH with V5T, F27S, T28I, Y33W, S56I, N57Y, N79T, Y82T
VL: B1 VL
notes: Fab, E. coli lysate
  binding result: binds

B17: SEQ ID NO 106 (Fab, V domains shown)
VH: B8 VH with T5V, S27F, T28I, I56S, S58G, D76G, N79T, R100Q
VL: B1 VL
notes: Fab, E. coli lysate
  binding result: binds

B18: SEQ ID NO 110 (Fab, V domains shown)
VH: B8 VH with T5V, Q26G, T28I, N79T, T82Y, R100Q, Y107P
VL: B1 VL
notes: Fab, E. coli lysate
  binding result: binds

B19: SEQ ID NO 146 (Fab, V domains shown)
VH: B8 VH with T5V, Q26G, S27F, T28I, S58G, S61H, D76G, Y107P
VL: B1 VL
notes: Fab, E. coli lysate
  binding result: binds

B20: SEQ ID NO 104 (Fab, V domains shown)
VH: B1 VH with V5T, G26Q, T28I, S56I, S61H, G78K, S80D
VL: B1 VL
notes: Fab, E. coli lysate
  binding result: binds

B21: SEQ ID NO 126 (Fab, V domains shown)
VH: B1 VH with F27S, S56I, N57Y, S61H, D76G, G78K, P107Y
VL: B1 VL
notes: Fab, E. coli lysate
  binding result: binds

B22: SEQ ID NO 144 (Fab, V domains shown)
VH: B1 VH with F27S, T28I, D76G, G78K, S80D, P107Y
VL: B1 VL
notes: Fab, E. coli lysate
  binding result: binds

B23: SEQ ID NO 158 (Fab, V domains shown)
VH: B8 VH with T5V, A23R, S27F, T28I, N57Y, S58G, S61H, T82Y, Y107P
VL: B1 VL
notes: Fab, E. coli lysate
  binding result: binds

B24: SEQ ID NO 137 (Fab, V domains shown)
VH: B1 VH with R23A, F27S, N57Y, D76G, N79T, S80D, Y82T, P107Y
VL: B1 VL
notes: Fab, E. coli lysate
  binding result: binds

B25: SEQ ID NO 148 (Fab, V domains shown)
VH: B1 VH with G26Q, T28I, S56I, N57Y, S58G, D76G, S80D, P107Y
VL: B1 VL
notes: Fab, E. coli lysate
  binding result: binds

B26: SEQ ID NO 130 (Fab, V domains shown)
VH: B1 VH with T28I, S56I, N57Y, S61H, P107Y
VL: B1 VL
notes: Fab, E. coli lysate
  binding result: binds

B27: SEQ ID NO 145 (Fab, V domains shown)
VH: B1 VH with V5T, G26Q, F27S, S58G, S80D, P107Y
VL: B1 VL
notes: Fab, E. coli lysate
  binding result: binds

B28: SEQ ID NO 115 (Fab, V domains shown)
VH: B1 VH with F27S, T28I, S56I, S61H, D76G, N79T, P107Y
VL: B1 VL
notes: Fab, E. coli lysate
  binding result: binds

B29: SEQ ID NO 135 (Fab, V domains shown)
VH: B8 VH with T5V, T28I, I56S, D76G, N79T, T82Y, R100Q
VL: B1 VL
notes: Fab, E. coli lysate
  binding result: binds

B30: SEQ ID NO 118 (Fab, V domains shown)
VH: B8 VH with T5V, S27F, D80S, T82Y, Y107P
VL: B1 VL
notes: Fab, E. coli lysate
  binding result: binds

B31: SEQ ID NO 134 (Fab, V domains shown)
VH: B8 VH with Q26G, T28I, S58G, S61H, D76G, K78G, N79T, D80S, T82Y, Y107P
VL: B1 VL
notes: Fab, E. coli lysate
  binding result: binds

B32: SEQ ID NO 123 (Fab, V domains shown)
VH: B1 VH with V5T, G26Q, N57Y, S58G, S80D, Q100R, P107Y
VL: B1 VL
notes: Fab, E. coli lysate
  binding result: binds

B33: SEQ ID NO 136 (Fab, V domains shown)
VH: B8 VH with T28I, N57Y, S61H, K78G, N79T, D80S, T82Y, R100Q, Y107P
VL: B1 VL
notes: Fab, E. coli lysate
  binding result: binds

B34: SEQ ID NO 155 (Fab, V domains shown)
VH: B8 VH with I56S, N57Y, D80S, T82Y
VL: B1 VL
notes: Fab, E. coli lysate
  binding result: binds

B35: SEQ ID NO 131 (Fab, V domains shown)
VH: B1 VH with V5T, R23A, G26Q, D76G, N79T, Y82T, P107Y
VL: B1 VL
notes: Fab, E. coli lysate
  binding result: binds

B36: SEQ ID NO 102 (Fab, V domains shown)
VH: B1 VH with T28I, Y33W, S56I, S58G, S61H, G78K, N79T, Q100R, P107Y
VL: B1 VL
notes: Fab, E. coli lysate
  binding result: binds

B37: SEQ ID NO 111 (Fab, V domains shown)
VH: B1 VH with V5T, T28I, S56I, S61H, Q100R
VL: B1 VL
notes: Fab, E. coli lysate
  binding result: binds

B38: SEQ ID NO 150 (Fab, V domains shown)
VH: B8 VH with T5V, S27F, W33Y, S58G, K78G, N79T, T82Y
VL: B1 VL
notes: Fab, E. coli lysate
  binding result: binds

B39: SEQ ID NO 112 (Fab, V domains shown)
VH: B1 VH with Y33W, S56I, N57Y, S61H, G78K, N79T, S80D, Q100R
VL: B1 VL
notes: Fab, E. coli lysate
  binding result: binds

B40: SEQ ID NO 117 (Fab, V domains shown)
VH: B8 VH with S27F, I56S, S61H, D76G, N79T, D80S, Y107P
VL: B1 VL
notes: Fab, E. coli lysate
  binding result: binds

B41: SEQ ID NO 108 (Fab, V domains shown)
VH: B8 VH with S27F, W33Y, N57Y, D76G, D80S, R100Q
VL: B1 VL
notes: Fab, E. coli lysate
  binding result: binds
